For three molecules, Kd results are on record in CN112010972A (REYOUNG SUZHOU BIOPHARMACEUTICAL CO LTD, dated 2020).

The assay concerns the target T1, 带有His标签的人LAG-3蛋白的胞外结构域(Acro) (human, UniProt P18627 23-450).
T1 construct: extracellular domain; Bought protein (Acro); also called Human-LAG-3-His; 抗原; not shown: His tag
T1 sequence (looked up): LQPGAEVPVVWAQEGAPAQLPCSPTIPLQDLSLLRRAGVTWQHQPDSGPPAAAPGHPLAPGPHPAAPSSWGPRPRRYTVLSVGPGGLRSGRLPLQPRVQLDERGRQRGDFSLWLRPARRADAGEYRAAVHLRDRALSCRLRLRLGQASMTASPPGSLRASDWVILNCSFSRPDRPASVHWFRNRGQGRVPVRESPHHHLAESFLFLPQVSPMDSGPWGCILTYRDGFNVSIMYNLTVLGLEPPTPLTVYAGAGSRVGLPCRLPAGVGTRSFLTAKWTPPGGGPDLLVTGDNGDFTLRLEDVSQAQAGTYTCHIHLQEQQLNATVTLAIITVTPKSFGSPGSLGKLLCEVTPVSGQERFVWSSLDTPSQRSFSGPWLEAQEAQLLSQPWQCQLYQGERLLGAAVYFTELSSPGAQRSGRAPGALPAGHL
Description: SPR (Biacore), supernatant captured on Protein A chip, 100 nM human LAG-3 as analyte, 1:1 fit.

B1: 抗LAG-3人鼠嵌合抗体 78H3VL-78H3VH (antibody, V domains shown)
VH: EVQLQQSGPVLAKPGASVKMSCKTSGYTLTDYYMNWVKQSHGKSLEWIGIINPYNGDTSYNQRFKGKATLTVDKSSSTAYMELNSLTSEDSAVYYCARDDGYYVDYFDYWGQGTTLTVSS
VL: DIQMTQSPSSLSASLGERVSLTCRASQDIGNSLNWLQQEPDGTIKRLIYATSSLDSGVPKRFSGSRSGSDYSLTISSLESEDFVDYYCLQHASSPPTFGAGTKLELKR
In the case of B1, the Kd is roughly 0.1 nM.

B2: 抗LAG-3人鼠嵌合抗体 17E3VL-17E3VH (antibody, V domains shown)
VH: EVMLVESGGGLVKPGGSLKLSCAASGFTFITYAMSWVRQTPEKRLEWVASINNGGTHYPDTMKGRFTISRDNARNILYLQMSSLRSEDTAMYYCARSYNGIPHYFDYWGQGTTLTVSS
VL: DILMTQTPASLAVSLGQRATISCRTSESIDNYGVSFMNWFQQKPGQPPRLLIYAASNQGSGVPARFSGSGSGADFSLNIHPMEEDDSALYFCQQSKEVPFTFGSGTKLEIKR
In turn, B2 registered a Kd of roughly 0.1 nM.

B3: 抗LAG-3人鼠嵌合抗体 29VL-17E3VH (antibody, V domains shown)
VH: B2 VH
VL: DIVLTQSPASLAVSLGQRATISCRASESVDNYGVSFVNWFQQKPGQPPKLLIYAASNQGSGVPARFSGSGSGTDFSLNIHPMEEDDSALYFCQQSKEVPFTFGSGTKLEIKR
In the case of B3, the Kd is roughly 0.1 nM.
